Data on 20 sequences can be found in the DeepSol protein solubility set.

This series can be described thus: soluble on expression in E. coli; label from the status in PepcDB or PDB records.
With “MVNLTELDRMLTETRGLLSQVRSGKGGASQEAVEGQGSAADGRIRVVAGAGGEITSIELDPRVMRMSSQELAEHLVEAVNQALRELRAQVTTAETAIAPEVLAQRLAEVQDQGLRQMTMFVEGLRDAMTQLGQRADRSG”, the “soluble on expression in E. coli” value was “not soluble”. For “VKPKGAFKAFTGEGQKLGSTAPQVLNTSSPAQQAENEAKASSSILINEAEPTTNIQIRLADGGRLVQKFNHSHRISDIRLFIVDARPAMAATSFVLMTTFPNKELADENQTLKEANLLNAVIVQRLT” the value was “soluble”.

For “GMGSLAEWYQRIPTPDDLTRVESLFANMQAQFPQLKLEFKWNQPMFTDHGTFIMGFNPSKKHLAVAIEPQTMTRFIPQIDKAGYDHSQIIRFPWHKPLDEQLIHDLIAYTIDQKKDATTFWQR”, the “soluble on expression in E. coli” value was “soluble”. As for “MNWYELYWQRITPLHLFLWPVSQLLILFQSVRRFLYRRAILTSIHLPVPIIIIDSITTDSPVKTSLIIQIANILKAAGLRPGIISRGYPDNHRPPTRVTISSHPHLTGEKSLLLTYHLRETCPVWIGYDRIETAKALLNAHKECNVLICDDGLQDLRLQRDFEAVIVDTSVINSGNGLIMPAGPLRDSFARLKHTDAVILAGHQRRIPDITDEIRTIHTRPQKEHFFNLSWPELTADAAGLAGKRIHAIVCDPDTQNFLDNLEFLKLTVTPRVFPENHHFIATDFQSDEAEIILIPEEDAVKCLSLHDDRIWVLQQEYRVDPGLREIILKKLREKFMDPKLLDILVCPLCKGSLIYKKDRLELICKADRLAYPIRDGIPVMLEDEARKLPDEEEIKLEHHHHHH”, the “soluble on expression in E. coli” value is “not soluble”. For “MKLVDALGKPCPIPVIETKKALAELGLAGGTIEVLVDNEVAIENLKKLATKKQATLTAKQIEATVFSVKITVPEEATQQTSQSATDLVITIGSDQLGTGDEQLGRLLMKSYLQSLSEAETVPTQLLFFNRGAFLTNQAANTLADLQQLAEKGTTIQTCGACLDFYHLTDTLAIGSITNMYEIVETMNQAAKVITLLEHHHHHH” the value was “soluble”; for “KWFRIDHVQEAHDAGVAVEDLFTRQIKVNHVVTGSDLVIDIHHTLGLEIIVSRIERDGQQTLPTASSRIHMGDVLSVVGTAEELDKAAHVLGDLLPGDPFHGHDLDYRRIFVSNQDLVGIPLAKLRPRLSGILITRVRRGDHDHVATPETVLQLGDRVRVVAAHDRMKSVTALFGDSYRRLSD”, “not soluble”.

Consider “SAVVPASLSGQDVGSFAYLTIKDRIPQILTKVIDTLHRHKSEFFEKHGEEGVEAEKKAISLLSKLRNELQTDKPFIRLVEKFVDTDIWNQYLEYQQSLLNESDGKSRWFYSPWLLVECYIDRRIHEAIIQSPPIDYFDVFKESKEQNFYGSQESIIALCTHLQQLIRTIEDLYENQLKDEFFKLLQISLWGNKCDLSLSGGESSSQNTNVLNSLEDLKPFILLNDMEHLWSLLSNCKKTREKASATRVYIVLDNSGFELVTDLILADFLLSSELATEVHFYGKTIPWFVSDTTIHDFNWLIEQVKHSNHKWMSKCGADWEEYIKMGKWVYHNHIFWTLPHEYCAMPQVAPDLYAELQKAHLILFKGDLNYRKLTGDRKWEFSVPFHQALNGFHPAPLCTIRTLKAEIQVGLQPGQGEQLLASEPSWWTTGKYGIFQYDGPL”, for which the “soluble on expression in E. coli” value is “not soluble”.

In the case of “MSLAFEPPRRLVRAFGETAPEGDDWLATLPEVAERAVARRGLTVERVQVPGGRSSLVVLVRTAEGAPAVLKLAPRRARPESERAALVHWGGRGAVQVREEGDEEGVLLLERLHPDVSVRSLPEAKALLEAAGTLRRLWVEPPGSHPFETVAERTGRQAEAMRAGAAADAQVAPLVDAALAARAELLGGPSEQRLLHGTFRQSKVLAGDRMPWLAVGPDPVVGESAFDLARLVRDRVEDLIAQPSGASTTRRRIKRLAESLEVDQERLRGWTLFRAVESGVRARRVGRERDAELLLEFAGWLEGHHHHHH”, the “soluble on expression in E. coli” value is “not soluble”. For “MGHHHRRDTERVCIRTRKIYDWVTRQVDVPLRSFSGEDLEAIFPMDHCRREGTICDFLGAQHTNPQHLTIRCFLTDADGNPIDSVVDQDALICQEITQPNGRQSVNVTLPSGETVTLQKVKALIKGHVVVQIVSPAGTVICQSKPIPFATAQTFILCAPEGTQLNCHISFFECDTSLVCTDNFAQLDVSITLCLEVQVEADVKIEVEARFCQPREELAEAVLCPTTKFPPQCPDVFPAM”, the “soluble on expression in E. coli” value is given as “not soluble”. For “MASGASATQRIPSKRQTLDEAYAPPANFLEIEVINPITHGVGKMRYTDYEIRMRSNLPVFKQKESSVRRRYSDFEWVRAELERDSKIVVPTLPGKSFKRQLPFRSDDGIFEEEFIENRRKALELFINKVAGHPLAQNERSLHIFLQEPTIDKNYVPGKIRTA” the value was “soluble”. For “MYTLNWQPPYDWSWMLGFLAARAVSSVETVADSYYARSLAVGEYRGVVTAIPDIARHTLHINLSAGLEPVAAECLAKMSRLFDLQCNPQIVNGALGRLGAARPGLRLPGCVDAFEQGVRAILGQLVSVAMAAKLTARVAQLYGERLDDFPEYICFPTPQRLAAADPQALKALGMPLKRAEALIHLANAALEGTLPMTIPGDVEQAMKTLQTFPGIGRWTANYFALRGWQAKDVFLPDDYLIKQRFPGMTPAQIRRYAERWKPWRSYALLHIWYTEGWQPDEA” the value was “soluble”; for “REQGFMFKKELGIESMEDLIEKIRYYKIINRNKGSGTRILFDKFLKENDIDKNSINGYDIEAKTHSAVGAAVSMGKAQIGLGISTISDHYDLEFIPIADENYDLLIPKEKLYDEDIIKFIETLKNEELPFKKSKDTGKIIYGC”, “not soluble”. With “GAKDSTVQTSISVENVLERAGDSTPFSVALESIDAMKTIEEITIAGSGKASFSPLTFTTVGQYTYRVYQKPSQNKDYQADTTVFDVLVYVTYDEDGTLVAKVISRRAGDEEKSAITFKPKRLVKPIPPRQPDFPKTPLPLA”, the “soluble on expression in E. coli” value is recorded as “soluble”. Take “MSKIKRVLISVSDKTGIIEFAKELSKYNIEILSTGGTSKTLKDAGINVIDVSEHTQFPEIMNGRVKTLHPLIHGGILADRDNPEHLDAMLKNHIGQIDMVVVNLYPFVNTVKSGADFDTCIENIDIGGPSMVRSCAKNHKHTTIVTNPSQYDLVIKEMAENDGKTTLATRREFAKEAFAHTAEYDSHIANWFSKELDEEYPEKLFSVGTLKQVLRYGENPHQKAAVYSTDADCVSITNARQLQGKELSYNNLNDADGAFEMVCEYSEPSCAIIKHANPCGIASGKNAFEAWTKALACDPISAFGGIVAFNCEVDKEFAESLGKMFLEVIIAPSYTQEALDILAAKKNLRVLETGKVFDTKSSRMISKNIHGGILSQSYDNGGVDINDCKVVTDRAPTDKEWADLMFAWKAVKYVKSNAIVYARDTQTVGIGAGQMSRVDSARIGAEKAQAHQGAKGSAVASDAFFPFADGLEECIKAGATAVIQPGGSKNDQEVIDAANKAGITMVFTNMRHFRH”: the “soluble on expression in E. coli” value was “not soluble”.

Take “STVELCGQWDTRTVAGGRYTVSNNVWGAETAQCIEVGLETGNFTITRAEHDNGNNVAAYPNIQFAIPQPRRVQELSDVRTSWTLTPITTGRWNAAYDIFFAANPNHVTYSGDAELMIWLNKNGDVMPIGSRVATVELAGATWEVWYADNGAMNVISYVRTTPTTSVTELDLKAFIDDAVARGYIRPEWYLLSVQTGFELFTGGAGLRSADFSVTVQ”: the “soluble on expression in E. coli” value is listed as “soluble”. As to “MLTPPPDSKISTTDKSLDKLSAPLDMLKQMNESTMEQTKLDELRKKMSLQAEILNKAKADNDMFFRLLIELMSLKLQGELFKEQLSKISKESGYDSAQSALIQATNSEGQSPLQYALQKQDFSTAKYFLDNGAKAGPIEKAVFEIALDSKAAKEFGFPPLPPEKEKLHPVKNFGLVLGIKTTSVDGTPSQFGHIAPTYQLMTDSVSHFAKSHPGNKNFQEIANAFQFSNEASAFKFSTPQRNPEAGNDLARRIQGGELTTIPVSCKGHAMGLSYVPDGPGSKSGYLVYTNRGLGAKSSEHGTHIFRIEDSSKITPEFINNMTSGHSNGASHDEIMSQIKAAAGNKEPIHHIKQKGQKNDNCTIANSKSNIEGILLCQKAREVGGFDKLTESDMDSVKKEYKEFTKHMRVEKVNELAKALKENPQDPDLNNLTKEYLKQHPNADPKLKQTLETALKQASESSMTLSQPGKTI”, the “soluble on expression in E. coli” value is listed as “not soluble”. For “MRFSIVSLLHRLFLAGALALAAGAQAAPDPMGPPDKFVLDAATQTIDILKSDQNVKAGNLAHINQVVDAHILPFVNFQKTTRLAAGRYWRQATDTQKAELAKAFRGTLVRTYSGALTKVDNGTTIKLLPFRGDPNADDVVVRSLISQSNSQPVQVDYRLEKTPQGWRIYDMNVEGIWLIENYRNQFAQQINQNGIDGLIQALNQRNQAAALEHHHHHH” the value was “soluble”; for “MIPGMRATPTESFSFVYSCDLQTNVQVKVAEFEGIFRDVLNPVRRLNQLFAEITVYCNNQQIGYPVCTSFHTPPDSSQLARQKLIQKWNEWLTLPIRYSDLSRDAFLHITIWEHEDDEIVNNSTFSRRLVAQSKLSMFSKRGILKSGVIDVQMNVSTTPDPFVKQPETWKYSDAWGDEIDLLFKQVTRQSRGLVEDVPWLDPFASRRIEMIRAKYKYSSPDRHVFLVLEMAAIRLGPTFYKVVYYEDETKNMRVSTSVNGGVGIVSACTRYCVADPELLLESLAEVKHSAMTRRIRDVEDERHRQVKPNKQAKDRLETIVNLPSSQVLTREQRDLVWKFRHYLRQFPKALNKYLRSVNWVHPQEVKTALALMNDWELIEAEDALELLSSAFTHPAVRAYSVSRLLEAASPEQVLLYLPQLVQALKYEQGQQLPEEGNPVPVVSEEEGKIPSVATTPTEELEGRDMTVVTKKEARKAASGDLATFLIDYALASPKVSNYLYWHLKTEIESTKESKEEHSKMYQNIQDRLMEALVKRPDTRAQVDSLHQQQIFVEDLIILMNEAKARGGRLNESKSAEFRTMLSRAKHMLDLKGVHLPLDPSFRLSSVIPDTASFFKSEMMPAKISFKVLQPNGKADRNIPEEYTVIFKTGDDLRQDQLIQQMVRLIDIILKKGQLDLKLTPYLVLSTGVGQGFVQCIKSKPLRAIQEQYKAHKMDCIREAMKELRPGDGPFGIEPNVIDNYVRSLAGYSVIMYILGLGDRHLDNLLLCENGKLFHVDFGFILGRDPKPMPPPMKLTSEMVQVMGGVKSKQFLEFVQHVDSAYRILRRHSNVLLNLFSLMLDAGIPDIAAEPDKAIFKIEQRLRLDLSDEAATKHIFTQIESSLNAKMAMISDIIHAYKQNLM”, “not soluble”; for “MGSDKIHHHHHHMDSLTELFCLIDDFCCQFEPALERRLLETGVKKRKRCSGLSLSELMTLTVLFHQLRFRQFKSFYLVYVCRHLQAEFPKLPSYQRCVELLPRCVAPLAALFEMLKGQCDGISIADATAIAVCDNRRIARHRVFADSARRGKTSMGWFYGFKLHAIINSRGELIRLRLTAGNVDDRKPMPDLCQGLFGQLFADKGYLAQWLTEALDQQNLQLITPLRKNMRPVPRTRFEKVILRRRSLIETVFDELKNLCQIEHTRHRSLFNFIVNLMAGIVAYCLSDNKPTLNLTRVNSLAKA”, “not soluble”. For “AQPKETILSIKDLVVKESRGLDAVKNLSLDVRAGEVVGIAGIDGNGQTELIQALAGLTKVENGSIHLNEKEITNRKPREITEMGVAHVPEDRHKYGLVLEMTLAENIGLQTYYQKPYSSTGILNYRMINKHARELIEEYDVRTPNELVPARALSGGNQQKAIIAREVDRDPDLLIVSQPTRGLDVGAIEYIHRRLIEQRDKNKAVLLVSFELDEILNVSDRIAVIHAGEIVGIVDPKETTENELGLLMAGYSLEEARAELSKVEAGETVE” the value was “not soluble”.
